Substitutions are numbered along the chain they refer to. Names may count otherwise.
B1: I363V: bx9 SEQ ID NO:1 mutant (protein)
chain: MASSRTGAGAGGRVVVFPFPFQGHFNPVMRLARALHARGLAITVFHSGALDPADYPADYRFVPVTVEADPKLLASEDIAAIVTTLNASCDAPFRARLSALLAAEGRDSVRCVFTDVSWNAVLTASSDLGVPALGMMTASAASLRDYMAYRTLIDKGYLPVKEERKEDPVPELPPYLVKDLLRVDTSDLEEFAELLARTVTAARRASGLIFNTFPLIETDTLAEIHKALSVPVFAVAPLNKLVPTATASLHGVVQADRGCLQWLDTQQPGSVLYVSFGSMAAMDPHEFVELAWGLADSKRPFVWVVRPNLIRGFESGALPDGVEDEVRGRGIVVAWAPQEEVLAHPAVGGFLTHNGWNSTVEAVSEGVPMVCCPRHGDQFGNMRYVCDVWKVGTELVGEQLERGQVKAAIDRLFGTKEGEEIKERMKEFKIAAAKGIGIGVDVDETASPRTDLTDLVDLIKSF
modifications: Zea mays
B2: I363T: bx9 SEQ ID NO:1 mutant (protein)
chain: B1 chain with V363T
modifications: Zea mays
B3: V116L: bx9 SEQ ID NO:1 mutant (protein)
chain: B1 chain with V116L, V363I
modifications: Zea mays
B4: I153T: bx9 SEQ ID NO:1 mutant (protein)
chain: B1 chain with I153T, V363I
modifications: Zea mays
B5: Q22M: bx9 SEQ ID NO:1 mutant (protein)
chain: B1 chain with Q22M, V363I
modifications: Zea mays
B6: M135T: bx9 SEQ ID NO:1 mutant (protein)
chain: B1 chain with M135T, V363I
modifications: Zea mays
B7: A79Q: bx9 SEQ ID NO:1 mutant (protein)
chain: B1 chain with A79Q, V363I
modifications: Zea mays
B8: A79N: bx9 SEQ ID NO:1 mutant (protein)
chain: B1 chain with A79N, V363I
modifications: Zea mays
B9: I363F: bx9 SEQ ID NO:1 mutant (protein)
chain: B1 chain with V363F
modifications: Zea mays
B10: G376C: bx9 SEQ ID NO:1 mutant (protein)
chain: B1 chain with V363I, G376C
modifications: Zea mays
B11: I153K: bx9 SEQ ID NO:1 mutant (protein)
chain: B1 chain with I153K, V363I
modifications: Zea mays
B12: F21Y: bx9 SEQ ID NO:1 mutant (protein)
chain: B1 chain with F21Y, V363I
modifications: Zea mays
B13: V370C: bx9 SEQ ID NO:1 mutant (protein)
chain: B1 chain with V363I, V370C
modifications: Zea mays
B14: I153V: bx9 SEQ ID NO:1 mutant (protein)
chain: B1 chain with I153V, V363I
modifications: Zea mays
B15: Q22H: bx9 SEQ ID NO:1 mutant (protein)
chain: B1 chain with Q22H, V363I
modifications: Zea mays
B16: A79G: bx9 SEQ ID NO:1 mutant (protein)
chain: B1 chain with A79G, V363I
modifications: Zea mays
B17: V370T: bx9 SEQ ID NO:1 mutant (protein)
chain: B1 chain with V363I, V370T
modifications: Zea mays
B18: A79S: bx9 SEQ ID NO:1 mutant (protein)
chain: B1 chain with A79S, V363I
modifications: Zea mays
B19: A79E: bx9 SEQ ID NO:1 mutant (protein)
chain: B1 chain with A79E, V363I
modifications: Zea mays
B20: E76M: bx9 SEQ ID NO:1 mutant (protein)
chain: B1 chain with E76M, V363I
modifications: Zea mays
B21: V370A: bx9 SEQ ID NO:1 mutant (protein)
chain: B1 chain with V363I, V370A
modifications: Zea mays
B22: Q22P: bx9 SEQ ID NO:1 mutant (protein)
chain: B1 chain with Q22P, V363I
modifications: Zea mays
B23: V370L: bx9 SEQ ID NO:1 mutant (protein)
chain: B1 chain with V363I, V370L
modifications: Zea mays
B24: I153C: bx9 SEQ ID NO:1 mutant (protein)
chain: B1 chain with I153C, V363I
modifications: Zea mays
B25: C372I: bx9 SEQ ID NO:1 mutant (protein)
chain: B1 chain with V363I, C372I
modifications: Zea mays
B26: V116I: bx9 SEQ ID NO:1 mutant (protein)
chain: B1 chain with V116I, V363I
modifications: Zea mays
B27: I363S: bx9 SEQ ID NO:1 mutant (protein)
chain: B1 chain with V363S
modifications: Zea mays
B28: V370I: bx9 SEQ ID NO:1 mutant (protein)
chain: B1 chain with V363I, V370I
modifications: Zea mays
B29: V370M: bx9 SEQ ID NO:1 mutant (protein)
chain: B1 chain with V363I, V370M
modifications: Zea mays
B30: M135C: bx9 SEQ ID NO:1 mutant (protein)
chain: B1 chain with M135C, V363I
modifications: Zea mays
B31: I363W: bx9 SEQ ID NO:1 mutant (protein)
chain: B1 chain with V363W
modifications: Zea mays
B32: M135L: bx9 SEQ ID NO:1 mutant (protein)
chain: B1 chain with M135L, V363I
modifications: Zea mays

Test: UDP luminescence plate assay of E. coli extracts, saturation mutants of SEQ ID NO: 1, herbicide V
Type: biochemical, Zea mays
Details: improvement factor relative to w/t bx9 = 1.0, rounded to nearest 0.5; extract activity basis; compound V
Procedure: Competent BL21 (DE3) cells are transformed as in the foregoing examples and, following seed culturing, grown and autoinduced in plates in a 0.5-1 ml volume of autoinduction medium containing 50 ug/ml kanamycin. Plates are incubated at 37° C. and shaken at 900 rpm. Growth is monitored by taking 20 ul aliquots, diluting 10 fold into flat-bottomed 96 well microtiter plates and reading OD600n at t=0, 1, 2, 2½ and 3 hours if necessary. At a (corrected) OD600 nm˜0.2, plates are transferred to 20° C. and shaken overnight at 900 rpm in a Jencons VWR plate incubator. After ˜18-20 h the final OD600 readings are recorded and the plates centrifuged at 4600 rpm (bench top centrifuge) for 10 min at 4° C. The supernatant is discarded and the pellets then washed with 0.25 ml PBS by repeat centrifugation and removal of supernatant before freezing cell pellets at −80° C. To prepare extracts, plates are allowed to thaw for 30 min and then pellets are resuspended in 0.25 ml of a suitable lysis buffer (for example—50 mM Tris HCL buffer at pH 8.0, 5% glycerol containing 50 mM NaCl and lysonase) mixed, incubated at room temperature for a sufficient time for lysis to be near complete and then centrifuged to remove cell debris and 100 ul of supernatant extract removed to a 96 well V-shaped well plate and stored on ice prior to assay.
Optionally plate assays are stopped with brief heating to 95 C before returning to ice and addition of UDP-Glo detection reagent followed by incubation at lab temperature. […] In addition a UDP standard curve is run alongside each set of plate tests.
Making use of the ELISA assay it is then possible to calculate a specific activity (e.g. in Relative Luminescence Units (RLU)/min/ug bx protein) based upon the amount of each mutant bx9 polypeptide expressed in each well. […] The specific activity of the various test mutant extracts on the same plate are then expressed as a fraction of the specific activity of the w/t bx9 and thus the ‘improvement factor’ versus the w/t expressed as a decimal where, for example, ‘0.5’ means half the specific activity of the wild type and 2.0 means twice the specific activity of the wild type. However, as will be readily apparent to the skilled man, particularly in cases where the UDP assay signal was low (with poor signal to noise versus the background) and/or the ELISA measurement of bx protein also low such a method is prone to generate spurious high specific activity numbers and uncertain numbers.

| Molecule | Most Preferred amino acid substitutions and (IF) based on RLU/min/ul | Preferred amino acid substitutions and (IF) based on RLU/min/ul |
| --- | --- | --- |
| B1 | A,V(2.0) |  |
| B2 |  | S,T,F,W(1.5) |
| B3 |  | L,I(1.0) |
| B4 |  | T,C,K,V,L,M,Y(1.0); |
| B5 |  | H,P,M(1.0) |
| B6 |  | T,C,L(1.0) |
| B7 |  | 1.0 |
| B8 |  | 1.0 |
| B9 |  | S,T,F,W(1.5) |
| B10 |  | C,M(1.0) |
| B11 |  | T,C,K,V,L,M,Y(1.0); |
| B12 | Y(2.0) |  |
| B13 |  | T,C,L,M(1.0) |
| B14 |  | T,C,K,V,L,M,Y(1.0); |
| B15 |  | H,P,M(1.0) |
| B16 |  | 1.5 |

| Molecule | Most Preferred amino acid substitutions and (IF) based on RLU/min/ul | Preferred amino acid substitutions and (IF) based on RLU/min/ul |
| --- | --- | --- |
| B17 |  | T,C,L,M(1.0) |
| B18 |  | 1.0 |
| B19 |  | 1.5 |
| B20 |  | M(1.0) |
| B21 |  | A,I(1.5) |
| B22 |  | H,P,M(1.0) |
| B23 |  | T,C,L,M(1.0) |
| B24 |  | T,C,K,V,L,M,Y(1.0); |
| B25 |  | I(1.0) |
| B26 |  | L,I(1.0) |
| B27 |  | S,T,F,W(1.5) |
| B28 |  | A,I(1.5) |
| B29 |  | T,C,L,M(1.0) |
| B30 |  | T,C,L(1.0) |
| B31 |  | S,T,F,W(1.5) |
| B32 |  | T,C,L(1.0) |
